Assay results from article doi:10.1101/2021.12.06.471393.

Target: CRISPR-Lon protease (Sulfurihydrogenibium sp. YO3AOP1)
Assay: SEC-MALS

CRISPR-T A171E (natural protein) showed a stoichiometry N (CRISPR-T variant per CRISPR-Lon) of 1.
In the case of CRISPR-T A181E (natural protein), the stoichiometry N (CRISPR-T variant per CRISPR-Lon) is reported as 1.
For CRISPR-T A194E (natural protein), the stoichiometry N (CRISPR-T variant per CRISPR-Lon) was 1.
In the case of CRISPR-T protein (natural protein), the stoichiometry N (CRISPR-T per CRISPR-Lon) is reported as 1.
